Data set [1] addresses T1, AA21 synthetic peptide (N21 with two conserved glycines replaced by alanine).
T1 chain: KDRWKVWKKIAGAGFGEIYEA

The target in data set [2] is recombinant human tau (1-441), full length tau, P10636.
Sequence of recombinant human tau (1-441), full length tau, P10636 (P10636 whole entry, looked up, tested part not stated): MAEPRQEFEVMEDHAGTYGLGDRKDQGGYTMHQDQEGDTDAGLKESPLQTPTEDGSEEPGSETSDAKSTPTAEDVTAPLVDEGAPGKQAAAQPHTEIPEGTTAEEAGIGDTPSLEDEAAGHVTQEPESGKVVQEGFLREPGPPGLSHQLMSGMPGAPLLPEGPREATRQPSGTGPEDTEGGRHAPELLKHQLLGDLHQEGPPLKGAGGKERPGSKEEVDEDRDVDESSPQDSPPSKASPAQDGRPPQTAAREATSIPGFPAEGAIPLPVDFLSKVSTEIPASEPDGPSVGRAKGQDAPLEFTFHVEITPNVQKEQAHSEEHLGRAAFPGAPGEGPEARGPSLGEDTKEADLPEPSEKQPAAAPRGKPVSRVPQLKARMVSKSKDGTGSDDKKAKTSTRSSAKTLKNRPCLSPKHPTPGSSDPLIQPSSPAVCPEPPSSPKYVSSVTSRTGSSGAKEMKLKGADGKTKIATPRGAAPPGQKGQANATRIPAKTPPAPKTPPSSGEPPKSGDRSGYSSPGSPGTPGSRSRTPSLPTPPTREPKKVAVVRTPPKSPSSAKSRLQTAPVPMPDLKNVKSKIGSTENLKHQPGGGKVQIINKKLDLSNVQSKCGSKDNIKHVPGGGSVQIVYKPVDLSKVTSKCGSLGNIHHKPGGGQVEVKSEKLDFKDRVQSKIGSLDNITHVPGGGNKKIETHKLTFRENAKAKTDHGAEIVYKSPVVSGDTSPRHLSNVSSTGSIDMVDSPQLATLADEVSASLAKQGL

B1: Brain Derived Tau Kinase (BDTK) (protein)
chain: MQCLAAALKDETNMSGGGEQADILPANYVVKDRWKVVKKIGGGGFGEIYEAMDLLTRENVALKVESAQQPKQVLKMEVAVLKKLQGKDHVCRFIGCGRNEKFNYVVMQLQGRNLADLRRSQPRGTFTLSTTLRLGKQILESIEAIHSVGFLHRDIKPSNFAMGRLPSTYRKCYMLDFGLARQYTNTTGDVRPPRNVAGFRGTVRYASVNAHKNREMGRHDDLWSLFYMLVEFAVGQLPWRKIKDKEQVGMIKEKYEHRMLLKHMPSEFHLFLDHIASLDYFTKPDYQLIMSVFENSMKERGIAENEAFDWEKAGTDALLSTSTSTPPQQNTRQTAAMFGVVNVTPVPGDLLRENTEDVLQGEHLSDQENAPPILPGRPSEGLGPSPHLVPHPGGPEAEVWEETDVNRNKLRINIGKSPCVEEEQSRGMGVPSSPVRAPPDSPTTPVRSLRYRRVNSPESERLSTADGRVELPERRSRMDLPGSPSRQACSSQPAQMLSVDTGHADRQASGRMDVSASVEQEALSNAFRSVPLAEEEDFDSKEWVIIDKETELKDFPPGAEPSTSGTTDEEPEELRPLPEEGEERRRLGAEPTVRPRGRSMQALAEEDLQHLPPQPLPPQLSQGDGRSETSQPPTPGSPSHSPLHSGPRPRRRESDPTGPQRQVFSVAPPFEVNGLPRAVPLSLPYQDFKRDLSDYRERARLLNRVRRVGFSHMLLTTPQVPLAPVQPQANGKEEEEEEEEDEEEEEEDEEEEEEEEEEEEEEEEEEEEEEEAAAAVALGEVLGPRSGSSSEGSERSTDRSQEGAPSTLLADDQKESRGRASMADGDLEPEEGSKTLVLVSPGDMKKSPVTAELAPDPDLGTLAALTPQHERPQPTGSQLDVSEPGTLSSVLKSEPKPPGPGAGLGAGTVTTGVGGVAVTSSPFTKVERTFVHIAEKTHLNVMSSGGQALRSEEFSAGGELGLELASDGGAVEEGARAPLENGLALSGLNGAEIEGSALSGAPRETPSEMATNSLPNGPALADGPAPVSPLEPSPEKVATISPRRHAMPGSRPRSRIPVLLSEEDTGSEPSGSLSAKERWSKRARPQQDLARLVMEKRQGRLLLRLASGASSSSSEEQRRASETLSGTGSEEDTPASEPAAALPRKSGRAAATRSRIPRPIGLRMPMPVAAQQPASRSHGAAPALDTAITSRLQLQTPPGSATAADLRPKQPPGRGLGPGRAQAGARPPAPRSPRLPASTSAARNASASPRSQSLRRESPSPSHQARPGVPPPRGVPPARAQPDGTPSPGGSKKGPRGKLQAQRATTKGRAGGAEGRAGAR
For B1, the “BDTK phosphorylation and tau phosphorylation in vitro (AA21-BDTK, AA21-tau)” value in data set [1] was “AA21 mutated peptide rather increased both BDTK (AA21-BDTK, from 30 to 300 )µM) and tau phosphorylation (AA21-tau, from 30 µM to 1 µM) in dose response manner”. Also, the tau phosphorylation entry in data set [2] was “Full length BDTK (SEQ ID NO:1), and isolated BDTK kinase domain (amino acids 38-319, SEQ ID NO:4) are able to phosphorylate tau”.

B2: His-tagged BDTK(38-319), BDTK kinase domain (protein)
chain: KKIGGGGFGEIYEAMDLLTRENVALKVESAQQPKQVLKMEVAVLKKLQGKDHVCRFIGCGRNEKFNYVVMQLQGRNLADLRRSQPRGTFTLSTTLRLGKQILESIEAIHSVGFLHRDIKPSNFAMGRLPSTYRKCYMLDFGLARQYTNTTGDVRPPRNVAGFRGTVRYASVNAHKNREMGRHDDLWSLFYMLVEFAVGQLPWRKIKDKEQVGMIKEKYEHRMLLKHMPSEFHLFLDHIASLDYFTKPDYQLIMSVFENSMKERGIAENEAFDWEKAGTDALL
In the case of B2, in data set [2], the “tau phosphorylation in vitro ([gamma-32P]ATP, SDS-PAGE, autoradiography)” value is “did phosphorylate tau protein as well as BDTK itself”; the “time at which tau phosphorylation was saturated, pH 6.5” value is listed as 120 min at pH 6.5; the “time at which tau phosphorylation was saturated, pH 7.5” value is recorded as “tau phosphorylation was saturated at 60 min at pH 7.5”.

The values are drawn from patent US20040076958.
